Data reported in article PMC2949506.

Key:
[1] = target: HIV-1 Vif (HXB2) L145A (HIV-1 (HXB2)) (UniProt P69723); experiment: pull-down
[2] = target: Elongin BC complex (Homo sapiens) (UniProt Q15370); experiment: ITC; conditions: cited from earlier work
[3] = target: Elongin BC complex (human Elongin B with Elongin C residues 17-122) (human) (UniProt Q15370); experiment: HDX-MS

Substance	Kd [2]	Kd [3]	further results
Elongin BC complex (human Elongin B with Elongin C residues 17-122) (from UniProt Q15370 1-118)	–	–	fold reduction of binding versus wt Vif [1]: 3 fold
Vif 130-180 (from UniProt P69722)	1190 nM	–	–
Full length HIV-1 Vif (HXB2) (from UniProt P69723) (natural protein)	–	1900 nM	stoichiometry N [3]: 1
HIV-1 Vif (HXB2) L145A (from UniProt P69723) (natural protein)	–	3900 nM	–
Vif 139-192 (from UniProt P69722)	0.4 nM	–	–
